Patent publication CN1542019A (CHINA ANTIBODY PHARMACY CO LTD, dated 2004)

T1: CD22抗原 (CD22 on Raji human lymphoma cells) (human, UniProt P20273 20-847)
T1 construct: whole, on cells; The assays are on Raji cells; also called Raji人淋巴瘤细胞; Raji细胞
T1 sequence (looked up): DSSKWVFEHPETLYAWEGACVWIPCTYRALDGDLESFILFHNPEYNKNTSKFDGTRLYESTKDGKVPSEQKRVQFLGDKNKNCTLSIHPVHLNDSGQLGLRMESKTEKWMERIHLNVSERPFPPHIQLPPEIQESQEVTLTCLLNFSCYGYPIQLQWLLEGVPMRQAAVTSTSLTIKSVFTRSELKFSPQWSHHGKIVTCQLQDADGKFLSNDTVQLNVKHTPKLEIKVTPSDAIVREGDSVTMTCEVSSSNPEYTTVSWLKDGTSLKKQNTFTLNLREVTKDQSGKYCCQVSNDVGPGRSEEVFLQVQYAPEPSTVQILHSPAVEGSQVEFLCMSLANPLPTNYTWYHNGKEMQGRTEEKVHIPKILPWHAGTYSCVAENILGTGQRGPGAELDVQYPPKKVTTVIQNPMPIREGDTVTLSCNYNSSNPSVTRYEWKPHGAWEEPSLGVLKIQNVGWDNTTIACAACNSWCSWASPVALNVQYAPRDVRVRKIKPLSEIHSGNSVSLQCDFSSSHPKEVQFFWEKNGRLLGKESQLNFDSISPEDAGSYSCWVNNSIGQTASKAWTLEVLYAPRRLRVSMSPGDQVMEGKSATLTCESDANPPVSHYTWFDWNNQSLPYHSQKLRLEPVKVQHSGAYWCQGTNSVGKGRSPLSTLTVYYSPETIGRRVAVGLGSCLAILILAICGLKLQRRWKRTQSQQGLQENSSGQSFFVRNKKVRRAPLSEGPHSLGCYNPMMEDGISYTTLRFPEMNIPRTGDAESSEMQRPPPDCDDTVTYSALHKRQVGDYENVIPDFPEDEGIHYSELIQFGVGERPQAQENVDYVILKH


What was measured:
[1] = biological target: T1, CD22抗原 (CD22 on Raji human lymphoma …); assay: flow cytometry on Raji human lymphoma cells, four purified batches of different production and storage time
[2] = biological target: T1, CD22抗原 (CD22 on Raji human lymphoma …); assay: competitive flow cytometry on Raji cells; unlabelled murine parent antibody as competitor of its FITC conjugate

Row | binding result [1] | binding result [2] | Binder
1 | binds | – | 嵌合抗体SM03 (chimeric anti-CD22 antibody SM03, human IgG1/human Kappa, variable regions modified at the N- and C-termini) (antibody, V domains shown, Expressed in SP2/0 cells, purified on Protein A; also called 嵌合单克隆抗体SM03; SM03试产第一批抗体) VH: QVQLQESGGGLVKPGGSLKLSCAASGFAFSIYDMSWVRQWPEKRLEWVAYISSGGGTTYYPDTVKGRFTISRDNAKNTLYLQMSSLKSEDTAMYYCARHSGYGSSYGVLFAYWGQGTLVTVSS VL: DIQLTQTTSSLSASLGDRVTISCRASQDISNYLNWYQQKPDGTVKLLIYYTSILHSGVPSRFSGSGSGTDYSLTISNLEQEDFATYFCQQGNTLPWTFGGGTKLEIKR
2 | – | binds | 嵌合抗体SM03的鼠源母抗体 (murine parent antibody of SM03) (antibody, V domains shown, Whole mouse hybridoma antibody (mouse IgG heavy chain, kappa light chain by the cloning primers); also called 鼠源抗体; FITC-鼠源母抗体偶联物) VH: EVQLVESGGGLVKPGGSLKLSCAASGFAFSIYDMSWVRQWPEKRLEWVAYISSGGGTTYYPDTVKGRFTISRDNAKNTLYLQMSSLKSEDTAMYYCARHSGYGSSYGVLFAYWGQGTLVTVSA VL: DIQMTQTTSSLSASLGDRVTISCRASQDISNYLNWYQQKPDGTVKLLIYYTSILHSGVPSRFSGSGSGTDYSLTISNLEQEDFATYFCQQGNTLPWTFGGGTKLEIK
